Test system: 30S ribosomal subunit (with S1)
Assay: filter binding
Conditions: no initiator tRNA; Not given in the material for EMSA, SPR and filter binding (buffer with monovalent ions and MgCl2; RNA renatured 90°C 1 min, ice, then 25°C 30 min)

Substance | Kd [nM] | further results
thrSSD mRNA | – | binding signal (fold higher affinity than WT thrS): 5
sodB mRNA | 1000 | –
rpsO mRNA | 1000 | –
rpsOSD mRNA | – | binding signal (fold higher affinity than WT rpsO): 5
thrS mRNA | 1000 | –
